From publication PMC10075959 (Science Advances, 2023)

Target: the molecule itself
Assay: AUC

Protein	binding result
MAGNGCDAALALMLLDRLNQLESKMSGKGQQQQGQTV [NLRS:L222M/G215C double mutant peptide]	binds
MAGNGCDAALALLLLDRLNQLESKMSGKGQQQQGQTV [NLRS:G215C peptide, listing 1 of 2 here]	binds
MAGNGSDAALALLLLDRLNQLESKMSGKGQQQQGQTV [NLRS:G215S peptide, listing 1 of 2 here]	binds
MAGNGGDAALALMLLDRLNQLESKMSGKGQQQQGQTV [NLRS:L222M peptide]	binds

Target: the molecule itself
Assay: AUC
Remark: another data set of the same source

Protein	binding result
MAGNGCDAALALLLLDRLNQLESKMSGKGQQQQGQTV [NLRS:G215C peptide, listing 2 of 2 here]	binds
MAGNGSDAALALLLLDRLNQLESKMSGKGQQQQGQTV [NLRS:G215S peptide, listing 2 of 2 here]	binds
